# Paper PMC7810697, “Sarcolipin alters SERCA1a interdomain communication by impairing binding of both calcium and ATP” (Scientific Reports, 2021)
# Ends that are not written are not given here. * marks the point of attachment. Palmitoyl = CCCCCCCCCCCCCCCC(=O)*
# Columns and labels:
# SERCA1a = details: cited from earlier work
# Excerpt: Besides its various roles in protein signalling and addressing, palmitoylation can also regulate oligomerisation processes of membrane proteins. Recent work has shown that other P-type ATPases regulatory subunits like phospholamban (PLB) and phospholemman (PLM) are palmitoylated[16],[17]. Acylation of PLB and PLM is functionally relevant by having an impact on the oligomerisation of the peptides, their association with their dedicated pumps (Ca^2+-ATPase or Na+, K+-ATPase, respectively) and on their lifetime.
# [1] = test system: recombinant purified SERCA1a (recS1a); assay: Limited proteolysis with proteinase K (SDS-PAGE); type: biochemical, rabbit (expressed in S. cerevisiae); details: Ca2.E1 (1 mM calcium) and E2.Tg (EGTA + thapsigargin); recS1a:pSLN 1:10 mole:mole; 0.3 mg/mL proteinase K, 5-30 min, 20 °C
# Experimental: Yeast-expressed and purified SERCA1a (recS1a) was supplemented with SLN at a mole:mole ratio of 1:10 recS1a:SLN. In absence of SLN, recS1a was supplemented with 0.07 mg/mL C12E8, an amount that corresponds to the detergent brought with chemically synthesized SLN. After 30 min at 20 °C, samples were supplemented with either 1.1 mM EGTA (Ca^2+free ~ 1 mM), or 50 mM EGTA (Ca^2+free ~ 150 nM) and 0.01 mg/mL Tg. After an additional incubation for 10 min at 20 °C, proteolysis was achieved by addition of 0.3 mg/mL proteinase K. Proteolysis was stopped by addition of 1 mM PMSF and incubation on ice for 10 min. After proteolysis arrest, samples were diluted twice in a 4 M-urea containing denaturation buffer, boiled for 60 s, and about 0.75 µg protein were loaded on a 9% SDS-PAGE prepared in the presence of 1 mM Ca^2+[32]. After electrophoresis, gels were stained with Coomassie blue.
# [2] = target: T1, recombinant SERCA1a (recS1a) (Oryctolagus cuniculus, UniProt P04191); assay: Steady-state ATPase activity, enzyme-coupled assay; type: biochemical, rabbit (expressed in S. cerevisiae)
# T1 construct: BAD (biotin acceptor domain) (C, cleaved yes); made in house; host or cells: Saccharomyces cerevisiae
# T1 sequence (P04191 1-994 isoform P04191-2): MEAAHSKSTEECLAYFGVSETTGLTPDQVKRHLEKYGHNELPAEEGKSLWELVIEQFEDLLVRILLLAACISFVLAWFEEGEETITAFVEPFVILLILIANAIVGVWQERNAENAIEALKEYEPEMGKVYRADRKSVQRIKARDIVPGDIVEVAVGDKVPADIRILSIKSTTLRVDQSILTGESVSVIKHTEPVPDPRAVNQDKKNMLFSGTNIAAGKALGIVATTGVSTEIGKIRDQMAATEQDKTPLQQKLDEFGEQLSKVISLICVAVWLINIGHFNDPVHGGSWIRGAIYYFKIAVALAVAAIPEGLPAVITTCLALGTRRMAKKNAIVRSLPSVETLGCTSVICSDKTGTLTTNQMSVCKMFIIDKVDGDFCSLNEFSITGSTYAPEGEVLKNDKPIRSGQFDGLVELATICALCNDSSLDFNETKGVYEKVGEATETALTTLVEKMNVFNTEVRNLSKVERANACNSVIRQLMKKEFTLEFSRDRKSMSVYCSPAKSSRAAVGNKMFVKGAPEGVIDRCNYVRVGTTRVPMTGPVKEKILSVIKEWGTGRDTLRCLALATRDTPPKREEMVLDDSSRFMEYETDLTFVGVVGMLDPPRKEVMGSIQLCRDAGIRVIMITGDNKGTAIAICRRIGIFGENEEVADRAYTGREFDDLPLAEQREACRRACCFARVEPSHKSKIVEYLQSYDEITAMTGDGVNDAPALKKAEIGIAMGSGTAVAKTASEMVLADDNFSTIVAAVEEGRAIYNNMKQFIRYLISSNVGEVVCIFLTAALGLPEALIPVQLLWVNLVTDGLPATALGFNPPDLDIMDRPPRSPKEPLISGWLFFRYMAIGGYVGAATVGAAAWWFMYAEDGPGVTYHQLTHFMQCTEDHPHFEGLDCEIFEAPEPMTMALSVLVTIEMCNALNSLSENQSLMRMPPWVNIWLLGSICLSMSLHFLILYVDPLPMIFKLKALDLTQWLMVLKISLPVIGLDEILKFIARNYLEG
# Experimental: resuspended in a large volume of pure water and lyophilized to evaporate most of the TFA. The rinsed powder was then suspended in presence of 10 mM HCl to exchange the anionic residual TFA that may interact with the positive charges of the peptide for chloride. This suspension was lyophilized again.
# Three additional cycles of – dissolving in pure water / lyophilisation – will allow to eliminate traces of TFA and to get back to a pH compatible with functional tests. For final solubilisation of SLN in detergent, powder was then dissolved in 50% TFE and an amount of detergent to reach a 100:1 mole:mole detergent:SLN ratio. Here, we used C12E8 as it is fully compatible with functional characterization of SERCA1a 23. This suspension was then lyophilized again to evaporate TFE.
# Sarcolipins (Palm-SLN or SLN) were finally resuspended at 0.8 mg/mL (about 200 µM) in a 10 mM potassium phosphate buffer pH 7.4, in the presence of 2.5 mg/mL C12E8.
# Expression and Purification of recombinant SERCA1a (recS1a)
# The yeast expression plasmid pYeDP60-SERCA1a-BAD (WT) and expression in Saccharomyces cerevisiae was described previously 30. Yeast membranes were solubilized by DDM for subsequent purification of recombinant Ca2+-ATPase by Streptavidin affinity chromatography 31. Purified recombinant SERCA1a was recovered in a buffer containing 50 mM MOPS-Tris pH7, 100 mM KCl, 5 mM MgCl2, 2.1 mM CaCl2, 40 % glycerol (v/v) and 0.5 mg/mL DDM, together with some thrombin remaining from the elution procedure. The protein concentration in the purified fraction was in the 0.05 to 0.15 mg/mL range depending on the batch. […]
# Steady-state ATPase activity measurements
# Measurements were performed using classical enzyme coupled assay. We measured the rate of NADH oxidation in the presence of 0.1 mg/mL lactate deshydrogenase, 0.05 mg/mL pyruvate kinase, 1 mM phosphoenolpyruvate, 0.25 mM NADH (protocol was adapted from 22) and in the additional presence of 2 mg/mL C12E8 to limit time-dependent inactivation of the purified SERCA1a 20,23.
Substance,effect of phosphorylation of SLN:Thr5 on SERCA1a inhibition (SERCA1a),effect on proteinase K proteolysis [1],"maximal turnover ([2]; recS1a + Palm-SLN, recS1a alone 2.88 +/- 0.12)","affinity for calcium and maximum turn-over ([2]; recS1a in absence or presence of pSLN, enzyme-coupled assay)","Ca1/2 (ATPase activity), recS1a + pSLN ([2]; steady state, NADH-coupled assay, 2 mg/mL C12E8, three independent experiments, p=0.248)"
"SLN: chemically synthesized non-palmitoylated rabbit sarcolipin; in cited literature results sarcolipin in general (MERSTRELCLNFTVVLITVILIWLLVRSYQY; UniProt P42532 1-31, looked up)",loss of inhibition of SERCA1a,–,–,–,–
"pSLN: chemically synthesized S-palmitoylated rabbit sarcolipin, 31-residue single-spanning membrane peptide, palmitoylated on Cys9 (MERSTRELC(Palmitoyl)LNFTVVLITVILIWLLVRSYQY; UniProt P42532 1-31, looked up)",–,drastically slowed,2.74 +/- 0.04 µmol ATP/mg/min,no difference was observed,0.13 +/- 0.06 µM
